Measured values published in patent US9457043B2, “Combination therapy using c-Met inhibitor and c-Myc inhibitor” (Samsung Electronics Co., Ltd., priority 2013, dated 2016).

Tests used:
SW620 cells = assay: Cell proliferation (CellTiter Glo) in SW620 colon cancer cells; type: cell-based; settings: L3-1Y/IgG2 0-2 μg/ml, 72 hours, FIG. 4
Source text: (§1) To confirm the effect of co-administration in a colon cancer cell on which an anti-c-Met antibody has no effect when administered alone, HT-29 (ATCC, HTB-38), Ls174T (ATCC, CCL-188), SW620 (ATCC, CCL-227), and LoVo (ATCC, CCL-229) cells were used for assaying the effect of co-administration on cell proliferation.
(§2) In particular, a mixture of c-Myc siRNAs (sic-Myc; mixture of siRNA pools wherein 5′-[…]-3′ (SEQ ID NO: 119), 5′-[…]-3′ (SEQ ID NO: 120), 5′-[…]-3′ (SEQ ID NO: 121), and 5′-[…]-3′ (SEQ ID NO: 122) are mixed at the molar ratio of 1:1:1:1) was reverse transfected to each of HT-29, Ls174T, SW620, and LoVo cells and each transfected cells were incubated in 96-well plate at the amount of 5000 cells/well (medium: 10% FBS in RPMI 1640 (GIBCO), incubation temperature: 37° C.). The reverse transfection was conducted using lipofectamine RNAi max (invitrogen). The reverse transfection was conducted by pre-incubating 10˜20 uM of siRNA diluted in opti-MEM (Gibco) and lipofectamine RNAi max diluted in opti-MEM (Gibco) at room temperature for 15 minutes, and then mixing with 5000 cells/well of the incubated cells, to allow reverse transfection. 24 hours after, the prepared cells were treated with L3-1Y/IgG2. […] The number of the cells was counted through luminescence signal, and the luminescence signal was recorded using Envision 2104 Multi-label Reader (Perkin Elmer). […]

HCC1954 cells = assay: Cell proliferation (CellTiter Glo) in HCC1954 breast cancer cells; type: cell-based; settings: L3-1Y/IgG2 0-2 μg/ml, 72 hours after antibody treatment, siRNA reverse transfected 24 hours before, FIG. 1
Source text: To confirm the effect of co-administration in a breast cancer cell on which an anti-c-Met antibody has no effect when administered alone, HCC1954 (ATCC, CRL 2338) cells were used for assaying the effect of co-administration on cell proliferation.
as §2, with “HCC1954” for “each of HT-29, Ls174T, SW620, and LoVo”, “the” for “each”

HT-29 cells = assay: Cell proliferation (CellTiter Glo) in HT-29 colon cancer cells; type: cell-based; settings: L3-1Y/IgG2 0-2 μg/ml, 72 hours, FIG. 2
Source text: as §1, §2

LoVo cells = assay: Cell proliferation (CellTiter Glo) in LoVo colon cancer cells; type: cell-based; settings: L3-1Y/IgG2 0-2 μg/ml, 72 hours, FIG. 5
Source text: as §1, §2

c-Myc = c-Myc expression level by western blotting in HT-29 cells; type: cell-based; settings: 1 μg/ml L3-1Y/IgG2 for 24 hours, western blot, beta-actin control, FIG. 7
Experimental: To reveal the causes of acquirement of effect by co-treatment of an anti-c-Met antibody and c-Myc siRNA on colon cancer cell on which the antibody solely has no effect, the expression level of c-Myc in HT29 (ATCC, HTB-38) treated with an anti-c-Met antibody was measured.
In particular, 20000 cells of HT-29 cell was incubated in 60 mm plate (medium: 10% FBS in RPMI 1640 (GIBCO), incubation temperature: 37° C.). 24 hours after, 1 μg/ml of L3-1Y/IgG2 was treated thereto. 24 hours after, the cells were lysed using Lysis buffer (Roche), thereby obtaining proteins. The concentration of the obtained proteins was measured, and 20 ug of each protein was loaded and subjected to western blotting. The expression amount of c-Myc was detected using c-Myc antibody (Santa-Cruz). A group which is not treated with L3-1Y/IgG2 was used as a control, and the expression amount of beta-actin was used as a control of expression amount of proteins.

Ls174T cells = assay: Cell proliferation (CellTiter Glo) in Ls174T colon cancer cells; type: cell-based; settings: L3-1Y/IgG2 0-2 μg/ml, 72 hours, FIG. 3
Source text: as §1, §2

c-Met = c-Met (Homo sapiens, UniProt P08581); assay: Specificity of expressed scFv to c-Met; type: binding; settings: scFv product after expression
Source text: For use in constructing an scFv of the huAbF46 antibody from the heavy and light chain variable regions of the huAbF46 antibody, a gene was designed to have the structure of “VH-linker-VL” for each of the heavy and the light chain variable region, with the linker including the amino acid sequence “[…]” (SEQ ID NO: 54). A polynucleotide sequence (SEQ ID NO: 55) coding for the designed scFv of huAbF46 was synthesized in Bioneer and an expression vector for the polynucleotide had the nucleotide sequence of SEQ ID NO: 56.

Sequence of c-Met (P08581 25-1390): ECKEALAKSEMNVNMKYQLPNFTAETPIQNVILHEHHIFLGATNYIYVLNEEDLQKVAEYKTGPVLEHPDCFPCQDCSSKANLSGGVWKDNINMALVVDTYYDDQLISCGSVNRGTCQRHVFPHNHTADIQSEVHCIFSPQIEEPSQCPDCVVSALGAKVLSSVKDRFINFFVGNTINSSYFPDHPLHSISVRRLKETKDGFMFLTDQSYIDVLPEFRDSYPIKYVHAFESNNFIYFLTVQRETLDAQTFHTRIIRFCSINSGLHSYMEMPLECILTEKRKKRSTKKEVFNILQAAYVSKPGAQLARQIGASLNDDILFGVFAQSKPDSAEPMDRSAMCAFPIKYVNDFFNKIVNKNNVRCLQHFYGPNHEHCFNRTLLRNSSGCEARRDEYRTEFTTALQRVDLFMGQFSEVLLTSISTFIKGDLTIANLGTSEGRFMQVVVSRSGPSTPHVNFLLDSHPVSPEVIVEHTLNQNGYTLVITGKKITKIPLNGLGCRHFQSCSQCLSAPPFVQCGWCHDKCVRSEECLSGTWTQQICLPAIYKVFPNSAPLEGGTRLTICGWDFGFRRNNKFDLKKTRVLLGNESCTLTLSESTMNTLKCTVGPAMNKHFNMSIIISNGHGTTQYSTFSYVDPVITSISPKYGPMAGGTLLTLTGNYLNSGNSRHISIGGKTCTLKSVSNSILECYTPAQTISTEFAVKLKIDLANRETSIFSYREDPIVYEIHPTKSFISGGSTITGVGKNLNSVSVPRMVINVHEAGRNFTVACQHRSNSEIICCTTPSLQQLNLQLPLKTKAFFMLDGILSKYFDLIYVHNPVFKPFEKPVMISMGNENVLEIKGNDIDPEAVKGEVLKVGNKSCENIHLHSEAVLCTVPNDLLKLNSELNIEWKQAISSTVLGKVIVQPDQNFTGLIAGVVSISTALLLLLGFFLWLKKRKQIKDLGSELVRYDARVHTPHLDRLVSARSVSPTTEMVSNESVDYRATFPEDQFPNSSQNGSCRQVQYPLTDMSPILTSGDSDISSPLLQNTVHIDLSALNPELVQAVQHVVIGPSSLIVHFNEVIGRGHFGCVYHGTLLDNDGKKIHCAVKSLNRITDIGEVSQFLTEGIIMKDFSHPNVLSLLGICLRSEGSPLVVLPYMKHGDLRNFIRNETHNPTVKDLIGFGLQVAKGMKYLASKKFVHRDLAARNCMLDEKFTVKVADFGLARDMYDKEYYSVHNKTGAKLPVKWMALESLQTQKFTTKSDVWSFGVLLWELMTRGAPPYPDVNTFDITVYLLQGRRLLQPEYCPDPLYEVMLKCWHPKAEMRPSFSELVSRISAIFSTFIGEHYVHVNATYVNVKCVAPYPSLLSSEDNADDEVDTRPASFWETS

B1: L3-1Y/IgG2: anti-c-Met antibody: huAbF46-H4-A1 heavy chain variable region, human IgG2 hinge and constant region, kappa light chain with tyrosine at position 36 (antibody)
heavy: EVQLVESGGGLVQPGGSLRLSCAASGFTFTDYYMSWVRQAPGKGLEWLGFIRNKANGYTTEYSASVKGRFTISRDNSKNTLYLQMNSLRAEDTAVYYCARDNWFAYWGQGTLVTVSSASTKGPSVFPLAPCSRSTSESTAALGCLVKDYFPEPVTVSWNSGALTSGVHTFPAVLQSSGLYSLSSVVTVPSSNFGTQTYTCNVDHKPSNTKVDKTVERKCCVECPPCPAPPVAGPSVFLFPPKPKDTLMISRTPEVTCVVVDVSHEDPEVQFNWYVDGVEVHNAKTKPREEQFNSTFRVVSVLTVVHQDWLNGKEYKCKVSNKGLPAPIEKTISKTKGQPREPQVYTLPPSREEMTKNQVSLTCLVKGFYPSDIAVEWESNGQPENNYKTTPPMLDSDGSFFLYSKLTVDKSRWQQGNVFSCSVMHEALHNHYTQKSLSLSPGK
light: DIQMTQSPSSLSASVGDRVTITCKSSQSLLASGNQNNYLAWYQQKPGKAPKMLIIWASTRVSGVPSRFSGSGSGTDFTLTISSLQPEDFATYYCQQSYSRPYTFGQGTKVEIKRTVAAPSVFIFPPSDEQLKSGTASVVCLLNNFYPREAKVQWKVDNALQSGNSQESVTEQDSKDSTYSLSSTLTLSKADYEKHKVYACEVTHQGLSSPVTKSFNRGEC
For B1, the “cell proliferation inhibition effect” value (SW620 cells) was “no cell proliferation inhibition effect is observed”, the “cell proliferation inhibition effect” value (HCC1954 cells) was “no cell proliferation inhibition effect is observed” and the “cell proliferation inhibition effect” value (HT-29 cells) was “no cell proliferation inhibition effect is observed”. The “cell proliferation inhibition effect” value (LoVo cells) was “no cell proliferation inhibition effect is observed”, the “amount of c-Myc (expression)” value (c-Myc) was “increased amount of c-Myc” and the “cell proliferation inhibition effect” value (Ls174T cells) was “no cell proliferation inhibition effect is observed”.

B2: scFv of huAbF46: VH-linker-VL single-chain Fv of huAbF46 with linker SEQ ID NO: 54 (protein)
scFv: EVQLVESGGGLVQPGGSLRLSCAASGFTFTDYYMSWVRQAPGKGLEWLGFIRNKANGYTTEYSASVKGRFTISRDNSKNTLYLQMNSLRAEDTAVYYCARDNWFAYWGQGTLVTVSSGLGGLGGGGSGGGGSGGSSGVGSDIQMTQSPSSLSASVGDRVTITCKSSQSLLASGNQNNYLAWHQQKPGKAPKMLIIWASTRVSGVPSRFSGSGSGTDFTLTISSLQPEDFATYYCQQSYSAPLTFGQGTKVEIKR
With B2 the “specificity to c-Met” value (c-Met) was “exhibit specificity to c-Met”.
